Results: patent US20090325290A1

Key:
[1] = biological target: HLA-DR (allotype and form not stated); test: not stated (Z. A. Nagy, unpublished)
[2] = biological target: HLA-DR antigen on the surface of HLA-DR positive cells (tumor cell lines other than PRIESS and LG-2, normal B cells, or cell line not stated) (human); test: cell-based or functional assay
[3] = biological target: HLA-DR on the human B-lymphoblastoid cell line LG-2 (human); test: cell-based or functional assay

Sequence of murine anti-HLA-DR antibody L243 (VH): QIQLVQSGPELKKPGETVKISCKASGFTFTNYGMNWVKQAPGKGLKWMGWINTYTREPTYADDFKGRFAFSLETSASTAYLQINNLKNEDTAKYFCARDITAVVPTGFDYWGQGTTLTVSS
Sequence of murine anti-HLA-DR antibody L243 (VL): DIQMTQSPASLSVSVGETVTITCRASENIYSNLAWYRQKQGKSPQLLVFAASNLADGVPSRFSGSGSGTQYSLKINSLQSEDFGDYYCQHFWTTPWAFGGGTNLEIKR

Substance murine anti-HLA-DR antibody L243 has a Kd [1] of 0.01 µM, a % killing of ARH-77 cells (DR 12), 200 nM, 4 h [2] of 88% and a % killing of BJAB cells (DR 12, 13), 200 nM, 4 h [2] of 53%. It also gave a % killing of BONNA-12 cells, 200 nM, 4 h [2] of 92%, a % killing of DOHH-2 cells (DR 1, 2), 200 nM, 4 h [2] of 29% and a % killing of EOL-1 cells, 200 nM, 4 h [2] of 22%. For the same substance, the % killing of GRANTA-519 cells (DR 2, 11), 200 nM, 4 h [2] was 83%, the % killing of HC-1 cells, 200 nM, 4 h [2] was 88% and the % killing of HD-MY-Z cells, 200 nM, 4 h [2] was 35%. For the same substance, the % killing of HDLM-2 cells, 200 nM, 4 h [2] was 77%, the % killing of KARPAS-299 cells (DR 1, 2), 200 nM, 4 h [2] was 78% and the % killing of KARPAS-422 cells (DR 2, 4), 200 nM, 4 h [2] was 25%. For the same substance, the % killing of KM-H2 cells, 200 nM, 4 h [2] was 81%, the % killing of L1236 cells, 200 nM, 4 h [2] was 52% and the % killing of L-363 cells, 200 nM, 4 h [2] was 6%. The % killing of L-428 cells (DR 12), 200 nM, 4 h [2] was 82%, the % killing of LP-1 cells, 200 nM, 4 h [2] was 12% and the % killing of MHH-CALL-4 cells (DR 1, 2), 200 nM, 4 h [2] was 35%. For the same substance, the % killing of MHH-PREB-1 cells, 200 nM, 4 h [2] was 3%, the % killing of MN-60 cells (DR 10, 13), 200 nM, 4 h [2] was 46% and the % killing of NALM-1 cells (DR 1, 4), 200 nM, 4 h [2] was 44%. The % killing of RAJI cells (DR 10, 17), 200 nM, 4 h [2] was 69%, the % killing of RPMI-8226 cells, 200 nM, 4 h [2] was 6% and the % killing of SR-786 cells (DR 1, 2), 200 nM, 4 h [2] was 3%. For the same substance, the % killing of LG-2 cells, 200 nM, 4 h [3] was 79%.
